Measurements published in patent US20200339702A1 (ULTRAHUMAN THIRTEEN, published 2020).
Positions count from the first letter of the chain named.

How the values were obtained:
[1] = molecular target: T1, rhesus ERBB3 on transiently transfected HEK-293 cells (rhesus monkey (Macaca mulatta), UniProt P21860 20-1342 (human entry)); test: flow cytometry, rhesus ERBB3-transfected HEK-293
T1 construct: also called rhesus ERBB3+ HEK-293 cells
T1 chain: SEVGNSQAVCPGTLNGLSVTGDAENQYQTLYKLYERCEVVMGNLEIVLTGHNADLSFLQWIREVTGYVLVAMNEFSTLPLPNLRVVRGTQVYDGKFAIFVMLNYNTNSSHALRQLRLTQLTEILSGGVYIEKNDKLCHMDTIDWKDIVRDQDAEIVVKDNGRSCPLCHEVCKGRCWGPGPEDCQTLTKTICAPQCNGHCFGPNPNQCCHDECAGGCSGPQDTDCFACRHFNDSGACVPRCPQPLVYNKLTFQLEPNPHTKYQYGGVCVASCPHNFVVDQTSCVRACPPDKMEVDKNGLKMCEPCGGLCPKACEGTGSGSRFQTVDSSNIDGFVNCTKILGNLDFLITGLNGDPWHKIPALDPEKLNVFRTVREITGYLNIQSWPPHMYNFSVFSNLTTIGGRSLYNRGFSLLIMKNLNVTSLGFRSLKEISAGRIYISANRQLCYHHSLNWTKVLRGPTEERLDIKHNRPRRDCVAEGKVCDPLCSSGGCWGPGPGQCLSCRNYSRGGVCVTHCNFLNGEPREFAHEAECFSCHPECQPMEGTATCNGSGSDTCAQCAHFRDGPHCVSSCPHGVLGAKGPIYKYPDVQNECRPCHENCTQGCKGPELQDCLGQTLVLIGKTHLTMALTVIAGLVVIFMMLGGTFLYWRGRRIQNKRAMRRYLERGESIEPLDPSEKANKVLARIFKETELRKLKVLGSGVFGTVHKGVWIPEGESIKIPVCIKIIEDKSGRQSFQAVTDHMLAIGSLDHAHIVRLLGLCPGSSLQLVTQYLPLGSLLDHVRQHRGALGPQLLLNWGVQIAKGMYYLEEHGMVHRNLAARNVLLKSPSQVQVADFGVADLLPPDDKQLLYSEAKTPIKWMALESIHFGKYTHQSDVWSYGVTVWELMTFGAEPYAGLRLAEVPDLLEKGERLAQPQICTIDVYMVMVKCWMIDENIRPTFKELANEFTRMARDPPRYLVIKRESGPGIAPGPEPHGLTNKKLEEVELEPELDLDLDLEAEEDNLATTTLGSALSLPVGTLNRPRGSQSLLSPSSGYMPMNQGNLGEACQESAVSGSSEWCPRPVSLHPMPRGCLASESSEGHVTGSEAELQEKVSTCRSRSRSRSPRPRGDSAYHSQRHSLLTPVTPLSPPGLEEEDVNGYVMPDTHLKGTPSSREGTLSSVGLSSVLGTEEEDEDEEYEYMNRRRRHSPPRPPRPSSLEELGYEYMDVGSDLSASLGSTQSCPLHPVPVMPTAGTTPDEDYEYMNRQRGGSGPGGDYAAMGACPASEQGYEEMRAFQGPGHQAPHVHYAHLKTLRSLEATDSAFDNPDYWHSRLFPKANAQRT
Experimental: Purified IgGs were tested in FACs for binding to human and rhesus monkey ERBB3 expressed on transiently transfected HEK-293 cells and HEK-293 wild-type cells. The IgG samples were titrated in three-fold serial dilutions starting at 500 nM to 0.008 nM. Binding of IgGs was detected with a mouse anti-human IgG conjugated to FITC. Results were analyzed by examining the Mean Fluorescence Intensity (MFI) of 10000 cells per sample in the BL-1 channel detector of a flow cytometer (Attune™ NxT Acoustic Focusing Cytometer, Invitrogen/ThermoFisher Scientific).
Antibodies to ERBB3 were analysed for concentration-dependent binding at the cell surface via flow cytometry. HEK-293 cells were transiently transfected with either human or rhesus ERBB3 full-length cDNAs. Anti-ERBB3 IgGs and an isotype control were then all tested in IgG1null format, over a concentration range of 500-0.008 nM for binding to human (FIG. 5A) and rhesus (FIG. 5B) transfected cells.

[2] = molecular target: T2, human ERBB3 His tagged, monomeric (human, UniProt P21860 20-643, biotinylated in the Alphascreen assays (sites not given)); test: SPR (Biacore), captured IgG, monomeric ERBB3-His analyte
T2 construct: Used unbiotinylated as Biacore analyte and biotinylated in Alphascreen; treated as one molecule; also called human ERBB3-His (Acrobiosystems); biotinylated monomeric human ERBB3
Experimental: (§1) Affinity (KD) of purified IgGs was determined via SPR with antigen in-solution on a Biacore® 3000 (GE). A mouse anti-human antibody (CH1 specific) was immobilized on a CM5 Sensor Chip to a level of 2000 RU in acetate buffer at pH 4.5 using amine coupling following the Wizard instructions for two channels. One channel was used for background signal correction. The standard running buffer HBS-EP pH 7.4 was used. Regeneration was performed with a single injection of 10 μl of 10 mM Glycine at pH 1.5 at […]. IgG samples were injected for 2 minutes at 50 nM at 30 μl/min followed by an off-rate of 60 seconds. The monomeric antigen (human ERBB3 His tagged or rhesus monkey ERBB3 His tag) was injected in two fold serial dilutions from 3 nM down to 0.2 nM, for 2 minutes at 30 μl/min followed by an off-rate of 300 seconds. The obtained sensorgrams were analysed using the Biacore® 3000 evaluation (BlAevaluation) software. The KD was calculated by simultaneous fitting of the association and dissociation phases to a 1:1 Langmuir binding model.
Biacore® analyses of binding affinity were performed for all IgGs to solution-phase, monomeric human and rhesus ERBB3 proteins.

[3] = molecular target: T2, human ERBB3 His tagged, monomeric; test: SPR (Biacore)
Experimental: as §1

B1: 09D12 IgG1null (antibody, V domains shown)
VH: QVQLVESGGGLVKPGGSLRLSCAASGFTFSDYGMSWIRQAPGKGLEWVSTISDGGSYTYYADSVKGRFTISRDNAKNSLYLQMNSLRAEDTAVYYCAREYGDYDGFDYWGQGTLVTVSS
VL: DIQMTQSPSSLSASVGDRVTITCRASQSISSYLNWYQQKPGKAPKLLIYAASSLDSGVPSRFSGSGSGTDFTLTISSLQPEDFATYYCLQYDSTPLTFGGGTKVEIK
notes: Human IgG1null and human Ckappa
- maximum MFI, fold over isotype control background [1]: > 20 fold
- Kd [2]: 270 pM
- koff [2]: 0.0035 s⁻¹
- kon [2]: 1.3e+07 M⁻¹ s⁻¹

B2: TTP IgG1null (antibody, V domains shown)
VH: B1 VH with G54S, Y57T, T58I
VL: B1 VL with D55Q
notes: Designer clone; Human IgG1null and human Ckappa; also called Total Theoretically Possible clone
- fold loss of KD against clone MH5 [3]: ~2 fold
- maximum MFI, fold over isotype control background [1]: > 20 fold
- Kd [2]: 1200 pM
- koff [2]: 0.073 s⁻¹
- kon [2]: 6.2e+07 M⁻¹ s⁻¹
